Test results from US10562947B2, “Compositions and methods for preventing or treating diseases, conditions or processes characterized by aberrant fibroblast proliferation and extracellular matrix deposition” (MOERAE MATRIX, INC., priority 2011, dated 2020).

Legend:
Experiment in all cases: Kinase Profiling Assay
Assay type in all cases: biochemical
Conditions in all cases: 100 μM peptide
Pim-2(h) = Pim-2(h) (Homo sapiens, UniProt Q9P1W9)
Method in brief: (§1)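 Peptides designed to inhibit MK2 were checked against a broad human kinase panel (266 enzymes), with duplicate measurement of every activity.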

mTOR/FKBP12(h) = mTOR/FKBP12(h) (Homo sapiens, UniProt P42345)
Chain of mTOR/FKBP12(h) (P42345 1362-2549 limits assumed): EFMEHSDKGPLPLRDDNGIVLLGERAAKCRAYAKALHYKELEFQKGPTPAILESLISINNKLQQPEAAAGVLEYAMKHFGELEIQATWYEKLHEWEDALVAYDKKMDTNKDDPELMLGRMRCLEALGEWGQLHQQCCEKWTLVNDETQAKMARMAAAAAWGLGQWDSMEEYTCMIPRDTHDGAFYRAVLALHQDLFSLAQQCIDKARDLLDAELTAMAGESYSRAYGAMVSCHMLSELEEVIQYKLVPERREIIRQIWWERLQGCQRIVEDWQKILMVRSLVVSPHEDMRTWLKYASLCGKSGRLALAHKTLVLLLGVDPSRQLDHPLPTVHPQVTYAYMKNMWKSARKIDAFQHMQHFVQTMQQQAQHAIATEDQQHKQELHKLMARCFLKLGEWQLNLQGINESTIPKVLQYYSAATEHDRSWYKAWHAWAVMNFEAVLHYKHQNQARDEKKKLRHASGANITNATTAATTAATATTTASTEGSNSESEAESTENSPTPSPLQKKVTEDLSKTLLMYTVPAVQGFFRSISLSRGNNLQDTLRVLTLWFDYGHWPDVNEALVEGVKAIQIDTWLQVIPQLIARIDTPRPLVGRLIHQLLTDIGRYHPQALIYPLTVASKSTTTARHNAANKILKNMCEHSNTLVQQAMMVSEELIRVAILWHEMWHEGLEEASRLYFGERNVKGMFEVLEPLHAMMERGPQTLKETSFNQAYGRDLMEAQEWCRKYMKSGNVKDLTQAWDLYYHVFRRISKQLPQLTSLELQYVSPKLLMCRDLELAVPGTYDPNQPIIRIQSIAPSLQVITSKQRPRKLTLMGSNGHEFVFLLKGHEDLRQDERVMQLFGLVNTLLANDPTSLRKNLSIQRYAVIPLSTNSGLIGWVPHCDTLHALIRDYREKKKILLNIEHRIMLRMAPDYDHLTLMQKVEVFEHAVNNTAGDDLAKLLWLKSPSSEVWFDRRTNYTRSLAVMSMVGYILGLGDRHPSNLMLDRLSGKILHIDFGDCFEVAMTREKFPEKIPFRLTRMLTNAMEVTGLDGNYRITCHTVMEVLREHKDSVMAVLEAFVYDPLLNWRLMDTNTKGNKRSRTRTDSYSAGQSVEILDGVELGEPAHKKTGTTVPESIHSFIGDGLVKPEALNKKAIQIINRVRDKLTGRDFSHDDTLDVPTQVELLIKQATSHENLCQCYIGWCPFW
Method in brief: as §1

PRAK(h) = molecular target: T1, PRAK(h) (Homo sapiens, UniProt Q8IW41)
T1 construct: purchased Millipore (IC50 Profiler Express service)
T1 sequence (Q8IW41 1-473): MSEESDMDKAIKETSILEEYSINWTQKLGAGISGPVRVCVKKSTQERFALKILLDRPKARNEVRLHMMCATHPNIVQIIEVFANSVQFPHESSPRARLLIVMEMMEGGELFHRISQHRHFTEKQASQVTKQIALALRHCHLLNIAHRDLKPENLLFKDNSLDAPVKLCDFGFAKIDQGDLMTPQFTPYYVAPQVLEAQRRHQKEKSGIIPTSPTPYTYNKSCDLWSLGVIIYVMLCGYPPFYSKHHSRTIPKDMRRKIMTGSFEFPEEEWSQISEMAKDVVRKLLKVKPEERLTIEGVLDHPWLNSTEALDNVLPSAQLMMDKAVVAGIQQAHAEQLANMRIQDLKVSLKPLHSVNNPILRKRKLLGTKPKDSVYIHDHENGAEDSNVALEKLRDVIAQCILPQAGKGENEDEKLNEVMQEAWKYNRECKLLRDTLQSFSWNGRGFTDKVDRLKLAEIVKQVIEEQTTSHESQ
Method in brief: as §1

ASK1(h) = molecular target: T2, ASK1(h) (Homo sapiens, UniProt Q99683)
T2 sequence (Q99683 1-1374): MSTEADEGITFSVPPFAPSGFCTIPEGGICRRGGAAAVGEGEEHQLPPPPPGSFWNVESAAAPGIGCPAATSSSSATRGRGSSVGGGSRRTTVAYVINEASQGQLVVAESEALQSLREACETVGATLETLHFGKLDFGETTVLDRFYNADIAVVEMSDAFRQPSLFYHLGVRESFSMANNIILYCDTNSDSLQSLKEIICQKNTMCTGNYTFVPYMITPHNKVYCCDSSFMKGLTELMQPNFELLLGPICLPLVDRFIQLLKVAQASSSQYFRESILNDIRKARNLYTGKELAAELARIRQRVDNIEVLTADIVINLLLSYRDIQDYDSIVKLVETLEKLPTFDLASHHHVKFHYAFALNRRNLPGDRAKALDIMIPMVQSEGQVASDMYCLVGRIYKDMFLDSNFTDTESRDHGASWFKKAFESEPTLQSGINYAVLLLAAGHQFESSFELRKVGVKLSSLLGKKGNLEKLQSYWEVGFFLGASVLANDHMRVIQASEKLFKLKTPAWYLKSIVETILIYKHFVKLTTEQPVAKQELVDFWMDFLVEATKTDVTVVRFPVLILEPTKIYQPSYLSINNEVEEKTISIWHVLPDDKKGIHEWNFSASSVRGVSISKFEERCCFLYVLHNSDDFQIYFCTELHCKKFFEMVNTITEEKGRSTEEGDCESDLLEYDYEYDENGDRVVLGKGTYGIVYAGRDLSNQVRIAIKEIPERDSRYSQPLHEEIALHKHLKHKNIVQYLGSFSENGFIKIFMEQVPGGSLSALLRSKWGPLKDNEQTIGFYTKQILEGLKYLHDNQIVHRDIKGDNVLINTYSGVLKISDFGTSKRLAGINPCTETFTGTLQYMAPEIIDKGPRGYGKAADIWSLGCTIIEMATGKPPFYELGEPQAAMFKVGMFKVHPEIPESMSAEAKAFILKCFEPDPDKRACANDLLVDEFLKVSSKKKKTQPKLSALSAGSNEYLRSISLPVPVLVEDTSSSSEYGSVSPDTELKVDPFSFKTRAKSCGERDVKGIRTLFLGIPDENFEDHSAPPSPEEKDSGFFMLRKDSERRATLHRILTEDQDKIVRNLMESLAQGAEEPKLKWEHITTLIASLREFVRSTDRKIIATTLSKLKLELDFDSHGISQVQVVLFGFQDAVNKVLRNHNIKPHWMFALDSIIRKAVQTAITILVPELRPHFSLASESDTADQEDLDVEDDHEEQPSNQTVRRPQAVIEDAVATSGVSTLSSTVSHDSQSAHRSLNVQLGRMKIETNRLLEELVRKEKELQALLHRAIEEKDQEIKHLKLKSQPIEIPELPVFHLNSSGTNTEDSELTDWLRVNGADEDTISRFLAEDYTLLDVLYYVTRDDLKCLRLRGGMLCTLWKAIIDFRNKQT
Method in brief: as §1

MAPK2(h) = MAPK2(h) (Homo sapiens, UniProt P28482)
Chain of MAPK2(h) (P28482 whole entry): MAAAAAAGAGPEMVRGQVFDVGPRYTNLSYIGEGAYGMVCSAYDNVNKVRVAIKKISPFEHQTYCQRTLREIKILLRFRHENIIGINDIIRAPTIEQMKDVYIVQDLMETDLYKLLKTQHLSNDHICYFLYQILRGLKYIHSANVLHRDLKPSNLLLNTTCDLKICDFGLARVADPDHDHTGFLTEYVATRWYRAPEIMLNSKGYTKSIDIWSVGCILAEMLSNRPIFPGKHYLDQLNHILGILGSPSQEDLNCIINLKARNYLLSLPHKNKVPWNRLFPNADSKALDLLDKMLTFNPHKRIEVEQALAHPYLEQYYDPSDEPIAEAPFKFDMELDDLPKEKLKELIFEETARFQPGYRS
Method in brief: as §1

Chain of Pim-2(h) (Q9P1W9 whole entry): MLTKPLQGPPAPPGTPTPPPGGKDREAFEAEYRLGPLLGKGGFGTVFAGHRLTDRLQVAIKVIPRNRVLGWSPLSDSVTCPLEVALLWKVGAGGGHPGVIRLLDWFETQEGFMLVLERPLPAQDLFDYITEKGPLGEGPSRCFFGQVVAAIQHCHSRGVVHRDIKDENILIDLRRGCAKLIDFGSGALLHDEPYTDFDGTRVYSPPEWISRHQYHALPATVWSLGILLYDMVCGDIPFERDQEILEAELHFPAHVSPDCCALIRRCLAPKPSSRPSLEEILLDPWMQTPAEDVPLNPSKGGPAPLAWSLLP

Sequence | Pim-2(h) % activity (Pim-2(h)) [%] | mTOR/FKBP12(h) % activity (mTOR/FKBP12(h)) [%] | PRAK(h) % activity (PRAK(h)) [%] | ASK1(h) % activity (ASK1(h)) [%] | MAPK2(h) % activity (MAPK2(h)) [%]
FAKLAARLYRKALARQLGVAA [MMI-0300] | 76 | 145 | 128 | 80 | 98
HRRIKAWLKKIKALARQLGVAA (Mammalian) [MMI-0500] | 46 | 140 | 95 | −4 | 60
KAFAKLAARLYRKALARQLGVAA [MMI-0400] | 92 | 125 | 118 | 69 | 93
YARAAARQARAKALNRQLGVA (Mammalian) [MMI-0200] | 74 | 118 |  | 101 | 
